Experimental data as given in patent CN114002427A (dated 2022).

Target: T1, 新型冠状病毒核衣壳蛋白 (SARS-COV-2, UniProt P0DTC9 1-419)
T1 construct: also called SARS-COV-2 nucleocapsid protein; 新型冠状病毒核衣壳蛋白抗原
Experiment: ELISA screening of hybridomas for antigen-specific antibodies

B1: mAb#9 (antibody, V domains shown)
VH: EVQLVESGGGLVKPGGSLKLSCAASGITFSDYYMYWVRQTPEKRLEWVATISDGGSYTYYPDSVKGRFTISRDNAKNNLYLQMSSLKSEDTAMYYCVRDKSMGFGAWFAYWGQGTLVTVSA
VL: EIVLTQSPTTMAASPGEKITITCSASSSISSNYLHWYQQRPGFSPKLLIYRTSNLASGVPARFSGSGSGTSYSLTIGTMEAEDVATYYCQQGHSIPYTFGGGTKLEIK
notes: also called 新型冠状病毒核衣壳抗体(mAb#9); 第二新型冠状病毒核衣壳蛋白抗体
binding result: binds
